Measurements as given in patent US20220119490A1 (Genentech, published 2022).
Substitutions are numbered along the chain they refer to.

T1: PTPRD E406K variant extracellular domain (human, UniProt P23468 21-1265)
T1 construct: extracellular domain; also called FN1 mutant
T1 sequence (looked up): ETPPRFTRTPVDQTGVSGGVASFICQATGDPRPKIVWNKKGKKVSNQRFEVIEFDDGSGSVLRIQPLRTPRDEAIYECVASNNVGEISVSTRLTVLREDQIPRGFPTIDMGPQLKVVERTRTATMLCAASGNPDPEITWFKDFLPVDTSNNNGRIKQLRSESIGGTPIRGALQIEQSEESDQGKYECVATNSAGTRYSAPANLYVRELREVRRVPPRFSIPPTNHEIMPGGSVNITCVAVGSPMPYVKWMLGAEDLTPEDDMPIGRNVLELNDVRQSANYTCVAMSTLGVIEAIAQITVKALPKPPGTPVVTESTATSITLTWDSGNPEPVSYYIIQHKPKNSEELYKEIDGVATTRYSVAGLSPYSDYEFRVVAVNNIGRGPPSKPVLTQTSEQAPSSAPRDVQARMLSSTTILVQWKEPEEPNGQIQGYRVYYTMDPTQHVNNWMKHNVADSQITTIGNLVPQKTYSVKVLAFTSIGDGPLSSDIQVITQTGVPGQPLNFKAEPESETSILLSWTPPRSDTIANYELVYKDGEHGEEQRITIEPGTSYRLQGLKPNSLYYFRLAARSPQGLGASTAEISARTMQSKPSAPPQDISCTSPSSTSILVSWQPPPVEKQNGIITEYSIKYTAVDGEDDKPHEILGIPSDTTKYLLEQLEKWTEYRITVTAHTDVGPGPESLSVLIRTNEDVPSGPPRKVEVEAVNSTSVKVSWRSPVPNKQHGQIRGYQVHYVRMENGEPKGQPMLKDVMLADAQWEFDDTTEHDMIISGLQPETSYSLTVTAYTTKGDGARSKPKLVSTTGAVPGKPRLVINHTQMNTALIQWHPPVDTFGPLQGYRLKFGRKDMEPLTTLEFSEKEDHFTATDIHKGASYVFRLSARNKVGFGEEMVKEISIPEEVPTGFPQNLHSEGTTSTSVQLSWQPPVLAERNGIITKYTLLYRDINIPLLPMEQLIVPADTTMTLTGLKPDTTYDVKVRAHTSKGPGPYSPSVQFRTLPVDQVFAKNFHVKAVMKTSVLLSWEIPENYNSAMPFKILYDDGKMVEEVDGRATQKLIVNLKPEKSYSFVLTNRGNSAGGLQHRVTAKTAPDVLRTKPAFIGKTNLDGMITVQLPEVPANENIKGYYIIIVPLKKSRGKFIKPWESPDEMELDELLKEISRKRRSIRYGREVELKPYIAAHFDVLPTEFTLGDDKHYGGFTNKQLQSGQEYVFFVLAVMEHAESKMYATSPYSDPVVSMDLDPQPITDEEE

T2: PTPRD P249L variant extracellular domain (human, UniProt P23468 21-1265)
T2 construct: extracellular domain; also called IG3 mutant
T2 sequence (looked up): T1 sequence (looked up) with P229L, K386E

B1: CNTN1 extracellular domain (receptor, human, UniProt Q12860 21-993, looked up)
chain: EFTWYRRYGHGVSEEDKGFGPIFEEQPINTIYPEESLEGKVSLNCRARASPFPVYKWRMNNGDVDLTSDRYSMVGGNLVINNPDKQKDAGIYYCLASNNYGMVRSTEATLSFGYLDPFPPEERPEVRVKEGKGMVLLCDPPYHFPDDLSYRWLLNEFPVFITMDKRRFVSQTNGNLYIANVEASDKGNYSCFVSSPSITKSVFSKFIPLIPIPERTTKPYPADIVVQFKDVYALMGQNVTLECFALGNPVPDIRWRKVLEPMPSTAEISTSGAVLKIFNIQLEDEGIYECEAENIRGKDKHQARIYVQAFPEWVEHINDTEVDIGSDLYWPCVATGKPIPTIRWLKNGYAYHKGELRLYDVTFENAGMYQCIAENTYGAIYANAELKILALAPTFEMNPMKKKILAAKGGRVIIECKPKAAPKPKFSWSKGTEWLVNSSRILIWEDGSLEINNITRNDGGIYTCFAENNRGKANSTGTLVITDPTRIILAPINADITVGENATMQCAASFDPALDLTFVWSFNGYVIDFNKENIHYQRNFMLDSNGELLIRNAQLKHAGRYTCTAQTIVDNSSASADLVVRGPPGPPGGLRIEDIRATSVALTWSRGSDNHSPISKYTIQTKTILSDDWKDAKTDPPIIEGNMEAARAVDLIPWMEYEFRVVATNTLGRGEPSIPSNRIKTDGAAPNVAPSDVGGGGGRNRELTITWAPLSREYHYGNNFGYIVAFKPFDGEEWKKVTVTNPDTGRYVHKDETMSPSTAFQVKVKAFNNKGDGPYSLVAVINSAQDAPSEAPTEVGVKVLSSSEISVHWEHVLEKIVESYQIRYWAAHDKEEAANRVQVTSQEYSARLENLLPDTQYFIEVGACNSAGCGPPSDMIEAFTKKAPPSQPPRIISSVRSGSRYIITWDHVVALSNESTVTGYKVLYRPDGQHDGKLYSTHKHSIEVPIPRDGEYVVEVRAHSDGGDGVVSQVKIS
notes: extracellular domain; Streptavidin tetramer in cell assays; ECD-Fc in SPR; also called contactin 1
B2: LRRC4B extracellular domain (receptor, human, UniProt Q9NT99 36-576, looked up)
chain: AGGGGVAVTSAAGGGSPPATSCPVACSCSNQASRVICTRRDLAEVPASIPVNTRYLNLQENGIQVIRTDTFKHLRHLEILQLSKNLVRKIEVGAFNGLPSLNTLELFDNRLTTVPTQAFEYLSKLRELWLRNNPIESIPSYAFNRVPSLRRLDLGELKRLEYISEAAFEGLVNLRYLNLGMCNLKDIPNLTALVRLEELELSGNRLDLIRPGSFQGLTSLRKLWLMHAQVATIERNAFDDLKSLEELNLSHNNLMSLPHDLFTPLHRLERVHLNHNPWHCNCDVLWLSWWLKETVPSNTTCCARCHAPAGLKGRYIGELDQSHFTCYAPVIVEPPTDLNVTEGMAAELKCRTGTSMTSVNWLTPNGTLMTHGSYRVRISVLHDGTLNFTNVTVQDTGQYTCMVTNSAGNTTASATLNVSAVDPVAAGGTGSGGGGPGGSGGVGGGSGGYTYFTTVTVETLETQPGEEALQPRGTEKEPPGPTTDGVWGGGRPGDAAGPASSSTTAPAPRSSRPTEKAFTVPITDVTENALKDLDDVMKTTK
notes: extracellular domain; ECD-Fc prey; also called NGL-3; netrin-G ligand-3

How the values were obtained:
[1] = molecular target: T3, PTPRZ1 expressed on cells (human, UniProt P23471 25-2315); experiment: cell surface interaction assay: streptavidin-tetramerized biotinylated ECD on transfected cells, immunofluorescence
T3 construct: whole, on cells
Source text: FIG. 3H is a schematic showing the design of the cell surface interaction assay.

[2] = molecular target: T1, PTPRD E406K variant extracellular domain; experiment: extracellular interaction screen: pentameric PTPRD variant ECD on ECD-Fc prey (FIG. 5L)
[3] = molecular target: T2, PTPRD P249L variant extracellular domain; experiment: as above

T3 sequence (P23471 25-2315): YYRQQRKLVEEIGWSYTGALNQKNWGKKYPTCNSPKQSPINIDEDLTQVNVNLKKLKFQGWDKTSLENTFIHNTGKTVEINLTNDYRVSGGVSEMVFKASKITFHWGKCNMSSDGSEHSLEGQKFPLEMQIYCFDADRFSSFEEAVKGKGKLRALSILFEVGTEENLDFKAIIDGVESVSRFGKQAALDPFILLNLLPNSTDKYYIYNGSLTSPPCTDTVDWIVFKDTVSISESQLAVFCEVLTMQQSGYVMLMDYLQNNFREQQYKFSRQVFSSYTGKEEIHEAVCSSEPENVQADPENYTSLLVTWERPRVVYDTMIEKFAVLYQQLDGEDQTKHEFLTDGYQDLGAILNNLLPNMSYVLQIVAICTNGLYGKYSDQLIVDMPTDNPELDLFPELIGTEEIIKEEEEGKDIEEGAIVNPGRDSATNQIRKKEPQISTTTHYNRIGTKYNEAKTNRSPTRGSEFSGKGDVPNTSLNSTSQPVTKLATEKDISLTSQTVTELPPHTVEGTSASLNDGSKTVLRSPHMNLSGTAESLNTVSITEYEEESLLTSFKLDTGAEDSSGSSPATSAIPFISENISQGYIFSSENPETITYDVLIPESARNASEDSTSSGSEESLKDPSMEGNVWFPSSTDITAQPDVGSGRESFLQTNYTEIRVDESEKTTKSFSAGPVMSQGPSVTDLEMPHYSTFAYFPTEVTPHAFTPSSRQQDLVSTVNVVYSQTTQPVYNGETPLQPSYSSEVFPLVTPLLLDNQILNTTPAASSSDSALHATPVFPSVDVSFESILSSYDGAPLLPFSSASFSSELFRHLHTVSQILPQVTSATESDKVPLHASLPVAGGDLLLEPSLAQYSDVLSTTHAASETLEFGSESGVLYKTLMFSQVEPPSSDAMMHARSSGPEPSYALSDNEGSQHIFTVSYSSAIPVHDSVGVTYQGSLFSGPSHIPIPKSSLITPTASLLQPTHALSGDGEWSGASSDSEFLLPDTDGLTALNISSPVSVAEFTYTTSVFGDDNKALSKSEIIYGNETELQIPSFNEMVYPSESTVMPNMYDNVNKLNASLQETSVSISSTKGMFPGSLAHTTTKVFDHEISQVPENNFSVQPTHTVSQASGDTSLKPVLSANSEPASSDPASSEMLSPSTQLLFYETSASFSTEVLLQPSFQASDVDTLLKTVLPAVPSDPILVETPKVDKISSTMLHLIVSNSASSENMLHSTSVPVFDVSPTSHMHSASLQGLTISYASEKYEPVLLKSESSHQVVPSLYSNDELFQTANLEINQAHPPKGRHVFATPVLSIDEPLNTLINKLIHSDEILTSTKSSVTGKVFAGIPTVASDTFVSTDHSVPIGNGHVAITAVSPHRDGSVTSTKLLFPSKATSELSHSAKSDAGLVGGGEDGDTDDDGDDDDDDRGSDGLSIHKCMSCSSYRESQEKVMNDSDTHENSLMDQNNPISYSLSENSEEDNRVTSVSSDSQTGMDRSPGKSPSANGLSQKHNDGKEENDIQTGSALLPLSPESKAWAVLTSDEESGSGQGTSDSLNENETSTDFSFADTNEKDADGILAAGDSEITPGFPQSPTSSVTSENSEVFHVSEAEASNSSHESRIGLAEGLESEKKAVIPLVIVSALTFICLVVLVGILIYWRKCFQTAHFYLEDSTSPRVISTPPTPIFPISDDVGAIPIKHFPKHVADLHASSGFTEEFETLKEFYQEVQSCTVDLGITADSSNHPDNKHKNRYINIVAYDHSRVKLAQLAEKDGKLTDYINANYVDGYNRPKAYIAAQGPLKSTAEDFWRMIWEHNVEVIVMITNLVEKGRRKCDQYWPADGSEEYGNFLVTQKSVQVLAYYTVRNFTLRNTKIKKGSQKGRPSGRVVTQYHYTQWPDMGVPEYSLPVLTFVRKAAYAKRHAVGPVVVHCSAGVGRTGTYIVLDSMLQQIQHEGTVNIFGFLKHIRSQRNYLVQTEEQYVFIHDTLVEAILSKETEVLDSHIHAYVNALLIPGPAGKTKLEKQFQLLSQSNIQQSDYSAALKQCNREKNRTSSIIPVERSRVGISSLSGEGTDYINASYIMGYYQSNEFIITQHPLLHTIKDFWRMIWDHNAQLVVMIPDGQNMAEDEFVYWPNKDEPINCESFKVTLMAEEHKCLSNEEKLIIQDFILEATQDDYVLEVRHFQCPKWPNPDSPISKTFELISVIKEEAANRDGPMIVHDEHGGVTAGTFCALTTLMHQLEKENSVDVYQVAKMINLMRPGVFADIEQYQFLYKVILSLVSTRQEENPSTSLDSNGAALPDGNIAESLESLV

| Binder | binding result [1] | binding result [2] | binding result [3] |
| --- | --- | --- | --- |
| B1 | binds |  |  |
| B2 |  | no binding | no binding |
